Earlier results on two substances are cited in paper PMC8836397.

For data set [1], the target named is Leu-enkephalin (Homo sapiens) (UniProt P01210).
Sequence of UniProt P01210 (P01210 whole entry, looked up): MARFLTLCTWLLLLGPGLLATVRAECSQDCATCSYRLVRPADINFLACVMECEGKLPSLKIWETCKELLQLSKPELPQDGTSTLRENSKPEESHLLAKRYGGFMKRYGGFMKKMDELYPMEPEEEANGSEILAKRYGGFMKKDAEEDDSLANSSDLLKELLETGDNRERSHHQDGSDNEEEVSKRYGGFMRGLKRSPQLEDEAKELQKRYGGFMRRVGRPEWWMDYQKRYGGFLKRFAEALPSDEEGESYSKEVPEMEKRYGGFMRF

For DPP III (from UniProt Q9NY33), the Ki is 0.1 µM with IVYPW (tynorphin analog) and 0.126 µM in the data set with WVYPW (tynorphin analog).

Regarding “DPP III (inactive variant) (from UniProt Q9NY33)”, the Kd in data set [1] is 3.6 µM.
